Here are results for two molecules from US20240270846A1 (published 2024).

This assay deals with T1, CD3 epsilon homodimer protein (UniProt P07766 23-126).
T1 construct: also called CD3 (CD3 epsilon)
Put plainly: SPR Biacore T200, CD3 epsilon homodimer on chip, antibody as analyte.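 Note: homodimer amine-coupled to a CM4 sensor chip, run at 25 °C in HBS-EP+ buffer, with kinetic parameters derived in Biacore T200 Evaluation Software.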

T1 sequence (P07766 23-126): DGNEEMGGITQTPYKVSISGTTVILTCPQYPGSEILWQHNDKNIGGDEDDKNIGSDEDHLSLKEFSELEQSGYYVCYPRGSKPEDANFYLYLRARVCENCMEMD

B1: CE115HA000 H chain altered form A60E (antibody, human IgG1, kappa, L234A L235A, N297A, name in Kabat numbering)
heavy: QVQLVESGGGVVQPGRSLRLSCAASGFTFSNAWMHWVRQAPGKGLEWVAQIKAKSNNYATYYEESVKGRFTISRDDSKNSLYLQMNSLKTEDTAVYYCRYVHYGAYYGVDAWGQGTTVTVSSASTKGPSVFPLAPSSKSTSGGTAALGCLVKDYFPEPVTVSWNSGALTSGVHTFPAVLQSSGLYSLSSVVTVPSSSLGTQTYICNVNHKPSNTKVDKKVEPKSCDKTHTCPPCPAPEAAGGPSVFLFPPKPKDTLMISRTPEVTCVVVDVSHEDPEVKFNWYVDGVEVHNAKTKPREEQYASTYRVVSVLTVLHQDWLNGKEYKCKVSNKALPAPIEKTISKAKGQPREPQVYTLPPSRCELTKNQVSLSCAVKGFYPSDIAVEWESNGQPENNYKTTPPVLDSDGSFFLVSKLTVDKSRWQQGNVFSCSVMHEALHNHYTQKSLSLSPDYKDDDDK
chain: EPKSSDKTHTCPPCPAPELLGGPSVFLFPPKPKDTLMISRTPEVTCVVVDVSHEDPEVKFNWYVDGVEVHNAKTKPREEQYNSTYRVVSVLTVLHQDWLNGKEYKCKVSNKALPAPIEKTISKAKGQPREPQVCTLPPSRDELTKNQVSLWCLVKGFYPSDIAVEWESNGQPENNYKTTPPVLDSDGSFFLYSKLTVDKSRWQQGNVFSCSVMHEALHNRYTQKSLSLSP
light: DIVMTQSPLSLPVTPGEPASISCRSSQSLVHSNRNTYLHWYQQKPGQAPRLLIYKVSNRFSGVPDRFSGSGSGTDFTLKISRVEAEDVGVYYCGQGTQVPYTFGQGTKLEIKRTVAAPSVFIFPPSDEQLKSGTASVVCLLNNFYPREAKVQWKVDNALQSGNSQESVTEQDSKDSTYSLSSTLTLSKADYEKHKVYACEVTHQGLSSPVTKSFNRGEC
notes: one-arm antibody
Consider B1, for which the “KD ratio (KD of CE115HA000 / KD of altered form)” value was 0.88.

B2: CE115HA000 H chain altered form E61A (antibody, human IgG1, kappa, L234A L235A, N297A, name in Kabat numbering)
heavy: QVQLVESGGGVVQPGRSLRLSCAASGFTFSNAWMHWVRQAPGKGLEWVAQIKAKSNNYATYYAASVKGRFTISRDDSKNSLYLQMNSLKTEDTAVYYCRYVHYGAYYGVDAWGQGTTVTVSSASTKGPSVFPLAPSSKSTSGGTAALGCLVKDYFPEPVTVSWNSGALTSGVHTFPAVLQSSGLYSLSSVVTVPSSSLGTQTYICNVNHKPSNTKVDKKVEPKSCDKTHTCPPCPAPEAAGGPSVFLFPPKPKDTLMISRTPEVTCVVVDVSHEDPEVKFNWYVDGVEVHNAKTKPREEQYASTYRVVSVLTVLHQDWLNGKEYKCKVSNKALPAPIEKTISKAKGQPREPQVYTLPPSRCELTKNQVSLSCAVKGFYPSDIAVEWESNGQPENNYKTTPPVLDSDGSFFLVSKLTVDKSRWQQGNVFSCSVMHEALHNHYTQKSLSLSPDYKDDDDK
chain: EPKSSDKTHTCPPCPAPELLGGPSVFLFPPKPKDTLMISRTPEVTCVVVDVSHEDPEVKFNWYVDGVEVHNAKTKPREEQYNSTYRVVSVLTVLHQDWLNGKEYKCKVSNKALPAPIEKTISKAKGQPREPQVCTLPPSRDELTKNQVSLWCLVKGFYPSDIAVEWESNGQPENNYKTTPPVLDSDGSFFLYSKLTVDKSRWQQGNVFSCSVMHEALHNRYTQKSLSLSP
light: DIVMTQSPLSLPVTPGEPASISCRSSQSLVHSNRNTYLHWYQQKPGQAPRLLIYKVSNRFSGVPDRFSGSGSGTDFTLKISRVEAEDVGVYYCGQGTQVPYTFGQGTKLEIKRTVAAPSVFIFPPSDEQLKSGTASVVCLLNNFYPREAKVQWKVDNALQSGNSQESVTEQDSKDSTYSLSSTLTLSKADYEKHKVYACEVTHQGLSSPVTKSFNRGEC
notes: one-arm antibody
Turning to B2, the “KD ratio (KD of CE115HA000 / KD of altered form)” value was 0.94.
